Legend:
Assay in all cases: holdup assay
Parameters in all cases: key: below the threshold = too weak to quantify, mostly under pKd 3.1 to 4
APBA2_2, Q99767 = biological target: T1, APBA2_2, Q99767
T1 sequence (Q99767 654-744, limits assumed, looked up): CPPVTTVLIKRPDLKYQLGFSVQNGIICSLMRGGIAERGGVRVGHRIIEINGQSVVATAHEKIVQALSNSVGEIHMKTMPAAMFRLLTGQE

ARHGAP21, Q5T5U3 = biological target: T2, ARHGAP21, Q5T5U3
T2 sequence (Q5T5U3 45-169, limits assumed, looked up): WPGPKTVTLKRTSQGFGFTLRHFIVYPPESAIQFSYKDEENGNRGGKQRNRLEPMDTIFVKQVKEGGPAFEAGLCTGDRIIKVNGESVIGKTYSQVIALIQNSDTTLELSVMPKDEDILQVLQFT

DLG1_2, Q12959 = biological target: DLG1_2, Q12959
DLG2_3, Q15700 = biological target: DLG2_3, Q15700
DLG4_1, P78352 = biological target: DLG4_1, P78352
DLG4_2, P78352 = biological target: DLG4_2, P78352
DLG4_3, P78352 = biological target: DLG4_3, P78352
FRMPD3, Q5JV73 = biological target: FRMPD3, Q5JV73
FRMPD4, Q14CM0 = biological target: FRMPD4, Q14CM0
GOPC, Q9HD26 = biological target: GOPC, Q9HD26
GORASP1, Q9BQQ3 = biological target: GORASP1, Q9BQQ3
GRASP, Q7Z6J2 = biological target: GRASP, Q7Z6J2
GRIP2_4, Q9C0E4 = biological target: GRIP2_4, Q9C0E4
GRIP2_7, Q9C0E4 = biological target: GRIP2_7, Q9C0E4
HTRA1, Q92743 = biological target: HTRA1, Q92743
HTRA4, P83105 = biological target: T3, HTRA4, P83105
T3 sequence (P83105 378-476, limits assumed, looked up): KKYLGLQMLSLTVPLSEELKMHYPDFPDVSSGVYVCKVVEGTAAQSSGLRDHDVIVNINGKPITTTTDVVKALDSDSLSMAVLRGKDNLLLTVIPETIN

IL16_3, Q14005 = biological target: IL16_3, Q14005
IL16_4, Q14005 = biological target: IL16_4, Q14005
Inadl_4, Q8NI35 = biological target: Inadl_4, Q8NI35
Inadl_5, Q8NI35 = biological target: Inadl_5, Q8NI35
Inadl_8, Q8NI35 = biological target: Inadl_8, Q8NI35
LAP2, Q96RT1 = biological target: LAP2, Q96RT1
LDB3, O75112 = biological target: LDB3, O75112
LIN7C, Q9NUP9 = biological target: T4, LIN7C, Q9NUP9
T4 sequence (Q9NUP9 88-185, limits assumed, looked up): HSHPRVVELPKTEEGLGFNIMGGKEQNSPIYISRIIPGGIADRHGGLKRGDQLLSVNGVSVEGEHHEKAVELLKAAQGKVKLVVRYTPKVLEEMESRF

LNX1_1, Q8TBB1 = biological target: LNX1_1, Q8TBB1
LNX2_2, Q8N448 = biological target: T5, LNX2_2, Q8N448
T5 sequence (Q8N448 334-432, limits assumed, looked up): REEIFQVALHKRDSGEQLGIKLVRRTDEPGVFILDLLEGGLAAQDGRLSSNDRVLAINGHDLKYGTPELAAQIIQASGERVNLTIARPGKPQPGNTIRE

MAGI1_1, Q96QZ7 = biological target: MAGI1_1, Q96QZ7
MAGI2_2, Q86UL8 = biological target: MAGI2_2, Q86UL8
MAGI2_3, Q86UL8 = biological target: MAGI2_3, Q86UL8
MAGI2_5, Q86UL8 = biological target: MAGI2_5, Q86UL8
PDLIM1, O00151 = biological target: PDLIM1, O00151
PDZRN3_1, Q9UPQ7 = biological target: T6, PDZRN3_1, Q9UPQ7
T6 sequence (Q9UPQ7 244-349, limits assumed, looked up): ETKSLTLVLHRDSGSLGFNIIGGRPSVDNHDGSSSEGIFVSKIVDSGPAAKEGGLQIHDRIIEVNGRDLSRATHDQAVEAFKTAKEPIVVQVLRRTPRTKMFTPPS

TJP1_2, Q07157 = biological target: TJP1_2, Q07157
[1] = plain residues with an end cap or a label only (N-terminal biotin on a linker: ado-ado)
[2] = modified: phospho on T at position -1 from the C-terminal residue
[3] = modified: phospho on T at position -2 from the C-terminal residue

Measured: pKd

Chain of DLG4_2, P78352 (P78352 155-259): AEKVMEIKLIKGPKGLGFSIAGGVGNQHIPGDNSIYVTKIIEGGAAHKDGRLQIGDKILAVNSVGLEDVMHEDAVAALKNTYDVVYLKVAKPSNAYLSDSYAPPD
Chain of GRIP2_7, Q9C0E4 (Q9C0E4 934-1023): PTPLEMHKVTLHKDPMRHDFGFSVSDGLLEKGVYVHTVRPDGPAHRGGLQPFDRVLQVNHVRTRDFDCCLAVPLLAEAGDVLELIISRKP
Chain of DLG4_1, P78352 (P78352 62-152): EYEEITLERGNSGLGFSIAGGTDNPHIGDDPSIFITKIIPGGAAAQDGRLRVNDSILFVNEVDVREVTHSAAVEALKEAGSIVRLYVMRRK
Chain of DLG1_2, Q12959 (Q12959 314-412): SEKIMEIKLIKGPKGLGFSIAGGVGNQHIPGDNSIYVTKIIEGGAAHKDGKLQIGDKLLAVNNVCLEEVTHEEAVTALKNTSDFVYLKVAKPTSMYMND
Chain of Inadl_8, Q8NI35 (Q8NI35 1425-1530): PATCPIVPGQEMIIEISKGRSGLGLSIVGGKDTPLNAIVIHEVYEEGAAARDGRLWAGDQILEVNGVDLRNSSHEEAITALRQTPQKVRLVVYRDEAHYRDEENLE
Chain of PDLIM1, O00151 (O00151 1-87): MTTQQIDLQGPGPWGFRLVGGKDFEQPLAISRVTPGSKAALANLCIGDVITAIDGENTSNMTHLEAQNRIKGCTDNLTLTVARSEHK
Chain of HTRA1, Q92743 (Q92743 360-477): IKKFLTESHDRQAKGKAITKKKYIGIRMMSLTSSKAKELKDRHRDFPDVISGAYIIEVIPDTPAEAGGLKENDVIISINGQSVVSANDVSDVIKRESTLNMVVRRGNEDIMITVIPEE
Chain of TJP1_2, Q07157 (Q07157 181-274): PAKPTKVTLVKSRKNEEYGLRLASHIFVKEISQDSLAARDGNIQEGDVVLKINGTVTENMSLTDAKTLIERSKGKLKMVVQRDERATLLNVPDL
Chain of GRASP, Q7Z6J2 (Q7Z6J2 96-193): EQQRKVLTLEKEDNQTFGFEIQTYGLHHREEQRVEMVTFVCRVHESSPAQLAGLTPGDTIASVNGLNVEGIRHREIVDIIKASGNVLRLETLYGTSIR
Chain of LDB3, O75112 (O75112 1-94): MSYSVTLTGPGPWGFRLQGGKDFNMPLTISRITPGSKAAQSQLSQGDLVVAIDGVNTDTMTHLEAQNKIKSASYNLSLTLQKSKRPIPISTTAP
Chain of Inadl_5, Q8NI35 (Q8NI35 673-780): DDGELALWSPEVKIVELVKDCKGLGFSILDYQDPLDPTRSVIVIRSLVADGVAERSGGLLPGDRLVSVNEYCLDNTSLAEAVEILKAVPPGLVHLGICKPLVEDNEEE
Chain of GORASP1, Q9BQQ3 (Q9BQQ3 1-208): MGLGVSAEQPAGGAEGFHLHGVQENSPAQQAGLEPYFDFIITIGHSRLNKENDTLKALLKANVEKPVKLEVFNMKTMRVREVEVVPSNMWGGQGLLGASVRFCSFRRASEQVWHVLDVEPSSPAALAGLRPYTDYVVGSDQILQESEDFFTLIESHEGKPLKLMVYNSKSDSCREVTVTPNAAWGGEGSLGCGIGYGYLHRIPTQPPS
Chain of MAGI2_2, Q86UL8 (Q86UL8 410-522): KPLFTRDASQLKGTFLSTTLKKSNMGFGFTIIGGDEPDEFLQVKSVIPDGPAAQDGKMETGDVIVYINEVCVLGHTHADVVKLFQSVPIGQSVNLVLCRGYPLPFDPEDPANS
Chain of LNX1_1, Q8TBB1 (Q8TBB1 261-371): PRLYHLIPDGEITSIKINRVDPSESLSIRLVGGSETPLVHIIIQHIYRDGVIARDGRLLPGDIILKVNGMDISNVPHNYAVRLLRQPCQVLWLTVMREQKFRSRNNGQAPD
Chain of Inadl_4, Q8NI35 (Q8NI35 547-651): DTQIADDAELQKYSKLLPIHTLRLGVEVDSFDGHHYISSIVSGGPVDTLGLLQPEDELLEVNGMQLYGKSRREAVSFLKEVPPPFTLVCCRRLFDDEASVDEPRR
Chain of GRIP2_4, Q9C0E4 (Q9C0E4 446-548): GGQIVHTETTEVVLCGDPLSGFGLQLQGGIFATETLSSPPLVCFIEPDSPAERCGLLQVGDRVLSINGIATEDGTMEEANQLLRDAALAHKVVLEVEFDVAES
Chain of MAGI2_5, Q86UL8 (Q86UL8 915-1017): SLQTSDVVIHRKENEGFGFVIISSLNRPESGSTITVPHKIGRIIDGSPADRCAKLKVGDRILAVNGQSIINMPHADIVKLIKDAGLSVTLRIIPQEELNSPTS
Chain of MAGI1_1, Q96QZ7 (Q96QZ7 1-106): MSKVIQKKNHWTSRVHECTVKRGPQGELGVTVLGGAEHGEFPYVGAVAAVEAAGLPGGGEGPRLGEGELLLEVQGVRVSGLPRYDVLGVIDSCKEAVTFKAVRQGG
Chain of DLG4_3, P78352 (P78352 306-403): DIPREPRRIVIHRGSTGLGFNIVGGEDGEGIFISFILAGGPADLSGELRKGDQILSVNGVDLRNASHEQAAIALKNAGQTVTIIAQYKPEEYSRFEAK
Chain of FRMPD3, Q5JV73 (Q5JV73 12-100): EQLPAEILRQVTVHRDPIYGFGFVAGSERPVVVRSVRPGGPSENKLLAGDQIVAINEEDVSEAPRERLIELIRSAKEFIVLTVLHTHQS
Chain of MAGI2_3, Q86UL8 (Q86UL8 600-682): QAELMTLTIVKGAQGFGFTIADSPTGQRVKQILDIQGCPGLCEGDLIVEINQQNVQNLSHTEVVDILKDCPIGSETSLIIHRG
Chain of IL16_3, Q14005 (Q14005 1107-1207): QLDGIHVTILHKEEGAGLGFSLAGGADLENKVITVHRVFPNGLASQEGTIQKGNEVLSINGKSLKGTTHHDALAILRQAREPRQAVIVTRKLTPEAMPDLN
Chain of LAP2, Q96RT1 (Q96RT1 other isoform, or with tags, fused parts or gaps): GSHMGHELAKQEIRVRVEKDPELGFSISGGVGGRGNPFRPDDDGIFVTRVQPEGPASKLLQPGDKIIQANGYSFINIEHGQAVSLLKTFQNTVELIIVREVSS
Chain of IL16_4, Q14005 (Q14005 1229-1329): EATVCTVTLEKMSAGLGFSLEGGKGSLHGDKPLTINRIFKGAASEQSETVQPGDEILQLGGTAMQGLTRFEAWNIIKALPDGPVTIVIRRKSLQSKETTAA
Chain of FRMPD4, Q14CM0 (Q14CM0 67-160): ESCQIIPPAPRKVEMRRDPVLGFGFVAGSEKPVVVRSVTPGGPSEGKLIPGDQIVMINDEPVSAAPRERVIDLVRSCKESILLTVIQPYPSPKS

LEPAVRSSEL [SH2D3C, Q8N5H7]
4.29: DLG1_2, Q12959; [1]
3.85: HTRA4, P83105; [1]
below the threshold: APBA2_2, Q99767; [1] | DLG2_3, Q15700; [1] | DLG4_1, P78352; [1] | DLG4_2, P78352; [1] | DLG4_3, P78352; [1] | FRMPD3, Q5JV73; [1] | FRMPD4, Q14CM0; [1] | GOPC, Q9HD26; [1] | GORASP1, Q9BQQ3; [1] | GRIP2_4, Q9C0E4; [1] | GRIP2_7, Q9C0E4; [1] | HTRA1, Q92743; [1] | IL16_3, Q14005; [1] | IL16_4, Q14005; [1] | Inadl_4, Q8NI35; [1] | Inadl_5, Q8NI35; [1] | Inadl_8, Q8NI35; [1] | LAP2, Q96RT1; [1] | LDB3, O75112; [1] | LIN7C, Q9NUP9; [1] | LNX2_2, Q8N448; [1] | MAGI1_1, Q96QZ7; [1] | MAGI2_2, Q86UL8; [1] | MAGI2_3, Q86UL8; [1] | TJP1_2, Q07157; [1]
3.67: LNX1_1, Q8TBB1; [1]
4.43: GRASP, Q7Z6J2; [1]
3.5: PDLIM1, O00151; [1]
4.13: PDZRN3_1, Q9UPQ7; [1]
4.28: MAGI2_5, Q86UL8; [1]
3.72: ARHGAP21, Q5T5U3; [1]

GQSVDLVFPV [AKIP1, Q9NQ31]
3.93: FRMPD4, Q14CM0; [1]
4.08: GRIP2_7, Q9C0E4; [1]
3.66: LNX1_1, Q8TBB1; [1]
4.15: HTRA1, Q92743; [1]
3.47: PDZRN3_1, Q9UPQ7; [1]
below the threshold: APBA2_2, Q99767; [1] | DLG1_2, Q12959; [1] | DLG2_3, Q15700; [1] | DLG4_2, P78352; [1] | DLG4_3, P78352; [1] | GOPC, Q9HD26; [1] | GRIP2_4, Q9C0E4; [1] | HTRA4, P83105; [1] | IL16_3, Q14005; [1] | IL16_4, Q14005; [1] | Inadl_4, Q8NI35; [1] | Inadl_5, Q8NI35; [1] | Inadl_8, Q8NI35; [1] | LAP2, Q96RT1; [1] | LDB3, O75112; [1] | LIN7C, Q9NUP9; [1] | MAGI1_1, Q96QZ7; [1] | MAGI2_2, Q86UL8; [1] | MAGI2_3, Q86UL8; [1] | MAGI2_5, Q86UL8; [1] | PDLIM1, O00151; [1] | TJP1_2, Q07157; [1]
3.6: DLG4_1, P78352; [1]
3.92: GORASP1, Q9BQQ3; [1]
4.16: ARHGAP21, Q5T5U3; [1]
3.87: LNX2_2, Q8N448; [1]
3.48: GRASP, Q7Z6J2; [1]
3.68: FRMPD3, Q5JV73; [1]

RRVRKLPSTTL [RPS6KA1_-1P, Q15418]
4: PDLIM1, O00151; [2]
3.57: Inadl_8, Q8NI35; [2]
3.48: HTRA4, P83105; [2]
3.74: DLG2_3, Q15700; [2]
below the threshold: APBA2_2, Q99767; [2] | ARHGAP21, Q5T5U3; [2] | FRMPD3, Q5JV73; [2] | GRIP2_4, Q9C0E4; [2] | GRIP2_7, Q9C0E4; [2] | IL16_3, Q14005; [2] | IL16_4, Q14005; [2] | Inadl_4, Q8NI35; [2] | Inadl_5, Q8NI35; [2] | LAP2, Q96RT1; [2] | LNX2_2, Q8N448; [2] | MAGI2_3, Q86UL8; [2] | TJP1_2, Q07157; [2]
3.62: FRMPD4, Q14CM0; [2] | LDB3, O75112; [2]
4.66: GOPC, Q9HD26; [2]
4.7: HTRA1, Q92743; [2]
3.8: DLG4_1, P78352; [2] | GRASP, Q7Z6J2; [2]
3.83: DLG1_2, Q12959; [2]
4.63: LNX1_1, Q8TBB1; [2]
3.33: MAGI1_1, Q96QZ7; [2]
3.92: MAGI2_2, Q86UL8; [2]
3.6: GORASP1, Q9BQQ3; [2]
3.56: LIN7C, Q9NUP9; [2] | MAGI2_5, Q86UL8; [2]
4.26: PDZRN3_1, Q9UPQ7; [2]
3.49: DLG4_3, P78352; [2]
3.85: DLG4_2, P78352; [2]

RRVRKLPSTTL [RPS6KA1_-2P, Q15418]
3.75: GORASP1, Q9BQQ3; [3]
3.47: LDB3, O75112; [3]
3.65: HTRA1, Q92743; [3]
below the threshold: APBA2_2, Q99767; [3] | ARHGAP21, Q5T5U3; [3] | DLG1_2, Q12959; [3] | DLG2_3, Q15700; [3] | DLG4_1, P78352; [3] | DLG4_2, P78352; [3] | DLG4_3, P78352; [3] | FRMPD3, Q5JV73; [3] | GOPC, Q9HD26; [3] | GRASP, Q7Z6J2; [3] | GRIP2_4, Q9C0E4; [3] | GRIP2_7, Q9C0E4; [3] | HTRA4, P83105; [3] | IL16_3, Q14005; [3] | IL16_4, Q14005; [3] | Inadl_4, Q8NI35; [3] | Inadl_5, Q8NI35; [3] | Inadl_8, Q8NI35; [3] | LAP2, Q96RT1; [3] | LIN7C, Q9NUP9; [3] | LNX1_1, Q8TBB1; [3] | LNX2_2, Q8N448; [3] | MAGI1_1, Q96QZ7; [3] | MAGI2_2, Q86UL8; [3] | MAGI2_3, Q86UL8; [3] | MAGI2_5, Q86UL8; [3] | PDLIM1, O00151; [3] | PDZRN3_1, Q9UPQ7; [3] | TJP1_2, Q07157; [3]
3.48: FRMPD4, Q14CM0; [3]
